Stoichiometry N (RP105-MD1 units per complex) and stoichiometry N (MD1 per RP105 (2:2)) data for 2 molecules are collected here from paper PMC3699456.

Assay [1] addresses solRP105-MD1 complex (mouse) (UniProt O88188). The experiment in a line: SEC; Superdex 200 PC3.2/30; 50 mM Tris-Cl pH 8.0, 300 mM NaCl; 0.05 ml/min; purified solRP105 and purified solRP105-MD1 complex.
The target is the same in assay [2]. The experiment in a line: SEC-MALS; WTC-030S5 column (Wyatt); 50 mM Tris-Cl pH 8.0, 300 mM NaCl; 0.5 ml/min; purified solRP105-MD1 complex.
For assay [3], the target named is T1, soluble RP105 (extracellular domain of mouse RP105, residues Thr21-Ala630) (mouse).
T1 sequence (Q62192 whole entry, looked up): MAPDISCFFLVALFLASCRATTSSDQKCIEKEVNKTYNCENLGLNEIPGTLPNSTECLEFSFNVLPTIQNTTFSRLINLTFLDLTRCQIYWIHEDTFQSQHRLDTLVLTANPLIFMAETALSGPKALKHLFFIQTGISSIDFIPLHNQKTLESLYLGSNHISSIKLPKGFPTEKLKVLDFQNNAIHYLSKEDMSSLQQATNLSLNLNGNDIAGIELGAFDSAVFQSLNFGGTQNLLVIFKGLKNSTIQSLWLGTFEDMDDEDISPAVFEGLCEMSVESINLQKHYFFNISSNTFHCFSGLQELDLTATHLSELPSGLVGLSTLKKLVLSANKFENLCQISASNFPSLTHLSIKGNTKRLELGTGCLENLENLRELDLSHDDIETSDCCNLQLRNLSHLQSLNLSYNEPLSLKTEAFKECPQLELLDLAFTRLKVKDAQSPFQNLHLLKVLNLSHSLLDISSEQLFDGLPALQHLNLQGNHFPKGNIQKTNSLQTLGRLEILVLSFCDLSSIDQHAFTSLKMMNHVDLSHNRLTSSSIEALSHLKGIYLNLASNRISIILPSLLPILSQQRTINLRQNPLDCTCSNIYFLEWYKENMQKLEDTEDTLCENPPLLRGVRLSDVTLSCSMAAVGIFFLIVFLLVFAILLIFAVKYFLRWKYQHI
The assay is described as above.

Take “solRP105-MD1 complex (from UniProt O88188 20-162)”: the stoichiometry N (RP105-MD1 units per complex) in assay [1] and in assay [2] was 2 each time.

B1: mouse MD1 without its native signal sequence (residues Asp20-Ser162) (natural protein)
chain: DHGSENGWPKHTACNSGGLEVVYQSCDPLQDFGLSIDQCSKQIQSNLNIRFGIILRQDIRKLFLDITLMAKGSSILNYSYPLCEEDQPKFSFCGRRKGEQIYYAGPVNNPGLDVPQGEYQLLLELYNENRATVACANATVTSSAAA
modifications: differential N-glycosylation at Asn96 and Asn156
In the case of B1, in assay [3], the stoichiometry N (MD1 per RP105 (2:2)) is 1.
